Experimental data taken from patent US12582683B2, “Prostate neoantigens and their uses” (Jansen Biotech, Inc., priority 2019, dated 2026).

B1: VFFKRAAEGFFRMNKLKESSDTNPKPYCMAAPMGLTENNRNRKKSYRETNLKAVSWPLNHT [P77] (peptide, listed as Homo sapiens)
chain: VFFKRAAEGFFRMNKLKESSDTNPKPYCMAAPMGLTENNRNRKKSYRETNLKAVSWPLNHT
notes: AR-V3

How the values were obtained:
HLA-A*03:01 = HLA-A*03:01 (Homo sapiens, UniProt P04439); test: In vitro binding of neoantigens to class I MHC (UV peptide exchange, HLA class I ELISA); details: 100% = same binding affinity as positive control peptide
Description: (§1) In Vitro Binding of Neoantigens to Class I MHC
(§2) The 9 mer peptides identified by bioinformatics analysis were analyzed for their binding propensities to 6 common HLA class I alleles (HLA-A*01:01, A*02:01, A*03:01, A*24:02, B*07:02, B*08:01). The principle of the method is briefly described below and consists of two parts, one involving exchange of peptide with a positive control induced by Ultraviolet (UV) radiation, and the second is an enzyme immunoassay to detect stable HLA-peptide and empty HLA complexes.
(§3) HLA-bound peptides are critical for the stability of the HLA complex.
(§4) The exchange efficiency between the peptide of interest and Pos was analyzed using an HLA class I ELISA. The combined technologies allowed the identification of ligands for an HLA molecule of interest which are potentially immunogenic.
(§5) The UV control represented UV-irradiation of conditional HLA class I complex in the absence of a rescue peptide. […] To this end streptavidin was bound onto polystyrene microtiter wells. After washing and blocking, HLA complex present in exchange reaction mixtures or ELISA controls was captured by the streptavidin on the microtiter plate via its biotinylated heavy chain. Non-bound material was removed by washing. Subsequently, horseradish peroxidase (HRP)-conjugated antibody to human B2M was added. […] In the latter case B2M was removed during the washing step. After removal of non-bound HRP conjugate by washing, a substrate solution was added to the wells. A coloured product formed in proportion to the amount of intact HLA complex present in the samples. After the reaction was terminated by the addition of a stop solution, absorbance was measured in a microtiter plate reader. […] Suboptimal HLA binding of peptides with a moderate to low affinity for HLA class I molecules can also be detected by this ELISA technique (Rodenko, B et al. (2006) Nature Protocols 1: 1120-32).
(§6) Binding of select neoepitopes to HLA-A*01:01, HLA-A* 02:01, HLA-A* 03:01, HLA-A*24:02, HLA-1B*07:02 and HLA-1B*08:01 was evaluated using the assay described in Example 1. […] As a criterion for further evaluation, peptides with an exchange rate of at least 10% with the corresponding Pos peptide for at least one of the 6 HLA alleles that we considered for further evaluation. […] Higher percentages correspond to stronger binding to the HLA allele.

HLA-A*02:01 = HLA-A*02:01 (Homo sapiens, UniProt P04439, D140Y/D185E/D98H/E176V/E277Q/G131W/G231S/I119V/I121R/I166T/I218V/L300P/L318F/N151K/N90K/P208A/P217A/Q86G/Q94H/R138H/R169H/T345S); test: as above; details: 100% = same binding affinity as positive control peptide
Description: as §1, §2, §3, §4, §5, §6

HLA-A*24:02 = HLA-A*24:02 (Homo sapiens, UniProt P04439, D101N/D140Y/D185E/E176V/E190D/F33S/G103R/G107R/I119L/I121M/I306V/K335N/L105A/L180Q/L300P/N151K/N90K/Q86E/Q94H/R106L/R138H/R89G/T104I/T345S/V100E/W191G/Y123F); test: as above; details: 100% = same binding affinity as positive control peptide
Description: as §1, §2, §3, §4, §5, §6

HLA-A*01:01 = HLA-A*01:01 (Homo sapiens, UniProt P04439, A114D/A174V/A182V/D101N/D185E/E176A/E190D/L180R/Q94H/R68K/S129P/T187R/V100A/V91M/W191G); test: as above; details: 100% = same binding affinity as positive control peptide
Description: as §1, §2, §3, §4, §5, §6

[1] = system: CD8+ T cells in PBMCs from patients with metastatic castrate-resistant prostate cancer; test: Patient PBMC restimulation assay (in vitro immunogenicity of neoantigens); format: cell-based, human; parameters: Maximum frequency of TNFα+IFNγ+CD8+ T cells: unit not given here; details: for Maximum frequency of TNFα+IFNγ+CD8+ T cells: greatest frequency among all tested PBMC donors, negative control 0.011-0.8; for Maximum fold change over: fold change over negative control, highest across the PBMC donors evaluated, 9 mer peptide
Description: In Vitro Immunogenicity Assessment of Neoantigens (“Patient PBMC Restimulation Assay”)
PBMCs from human patients with metastatic castrate-resistant prostate cancer were thawed using media (RPMI 1640 supplemented with Glutamax, 10% HI FBS, and 1× Sodium Pyruvate). Cells were counted and plated in a 96 well round bottom microplate at a concentration of 250,000 viable cells per well. Lyophilized peptides were solubilized in 100% DMSO and diluted in media to 10 μg/mL. Neoantigen peptides were added in equal volume to PBMCs for a final concentration of 5 μg/mL. CEF Peptide Pool “Plus” (Cellular Technologies, Ltd.) was utilized as a positive control and DMSO at the same final concentration as the experimental peptides was utilized as a negative control. Human IL-15 (Peprotech) was added to all wells at final concentration of 10 ng/mL.
Plates were incubated at 37° C. (5% CO2) for a total of 13 days. Media was refreshed every 2 days with IL-15 (10 ng/mL final concentration) and IL-2 (R&D systems, 10 IU/mL final concentration). On day 12, PBMCs were re-stimulated with identical experimental peptides or controls, at same concentration as peptide stimulation on Day 1. After 1-hour incubation, protein Inhibitor Cocktail (eBioscience) was added to every well and plate was incubated overnight.
On day 13, cells were stained for intracellular flow cytometry analysis. The cells were washed with PBS and stained with Live/Dead Fixable Aqua Dead Cell stain (Thermo-Fisher). Following the live/dead stain, cells were blocked using Biotin-Free Fe Receptor Blocker (Accurate Chemical & Scientific Corp). Extracellular cellular flow panel (1 μL/antibody per well in 50 μL) consisted of CD3 PerCP-Cy5.5 (Biolegend), CD4 BV421 (Biolegend), and CD8 APC-Cy7 (Biolegend). After extracellular staining, cells were fixed using Foxp3/Transcription Factor Staining Buffer Set (eBioscience) and stained for intracellular proteins (1:50 dilution) using TNFα FITC (R&D Systems) and IFNγ BV785 (Biolegend). Cells were washed and resuspended in stain buffer and analyzed using a BD Celesta flow cytometer.
Flow cytometry cell staining analysis was completed using FlowJo v10. Cells were gated on live, singlet, CD3+ cells. The CD8+ T cells were analyzed for TNFα/IFNγ expression and the frequency of double positive TNFα/IFNγ CD8+ T cells was recorded. Responses were assessed to be positive when the frequency of double positive TNFα/IFNγ CD8+ T cells due to stimulation with an experimental peptide was increased greater than or equal to 2-fold over the DMSO only negative control for that patient. Peptides were analyzed in 1 to 7 patient samples.
The 9 mer fragments shown in Table 13 were assessed for their ability to activate T cells using the Patient PBMC restimulation assay described in Example 1 using TNFα and IFNγ production by CD8^+ T cells as a readout. Self-antigens shown in Table 15 were also used in the assays. […] PBMCs from ten patients were evaluated.

HLA-B*07:02 = HLA-B*07:02 (Homo sapiens, UniProt P01889); test: In vitro binding of neoantigens to class I MHC (UV peptide exchange, HLA class I ELISA); details: 100% = same binding affinity as positive control peptide
Description: as §1, §2, §3, §4, §5, §6

Molecule | Exchange rate with Pos peptide, HLA-A*03:01 (HLA-A*03:01) [%] | Exchange rate with Pos peptide, HLA-A*02:01 (HLA-A*02:01) [%] | Exchange rate with Pos peptide, HLA-A*24:02 (HLA-A*24:02) [%] | Exchange rate with Pos peptide, HLA-A*01:01 (HLA-A*01:01) [%] | Maximum frequency of TNFα+IFNγ+CD8+ T cells [1] | Exchange rate with Pos peptide, HLA-B*07:02 (HLA-B*07:02) [%] | Maximum fold change over [1] | Immunogenic ([1]; patient PBMC restimulation, CD8+ T cells)
MFENGCYLGRQKRFKCE (listed as Homo sapiens) [Neoantigen P61, FOXAl.p.R261G] | 2.1 | 5.8 | 90.3 | 1.7 | 0.084 |  |  | 
PKSEVRAKCKFSILNAK (listed as Homo sapiens) [Neoantigen P56, SPOP (F102C)] | 6.8 | 8.4 | 0.5 | 2.6 | 1.620 | 82.5 | 11.57 | 
QMAVIQYSCMGLMVFAM (listed as Homo sapiens) [Neoantigen P50, AR (W742C)] |  |  |  |  | 0.190 |  | 5.14 | 
DDRNTFDIVWWCPMSRLRLALTVPPSTTTTCVTVPAWAA [P46] (listed as Homo sapiens) [Neoantigen P46, TP53 (R213D)] | 10.3 | 14.4 | −0.4 |  | 0.140 | 64.8 | 2.33 | 
MMAEHSVHVPKILSGK (MMAEIISVHVPKILSGK; listed as Homo sapiens) [Neoantigen P58, AR (Q903H)] | 32.5 | 11.8 | 0.2 | 2.5 | 5.370 |  |  | 
DSSGNLLERNSFEVRV (listed as Homo sapiens) [Neoantigen P73, TP53 (G266E)] | 3.5 | 89.2 | 0.5 | 2.1 | 0.110 | 8.7 | 2.97 | 
CYLRRQKRLKCEKQPGA (listed as Homo sapiens) [Neoantigen P60, FOXA1.p.F266L] | 36.6 | 7.9 | 0.9 | 3.1 | 0.340 | 6.1 | 2.08 | 
MAGGVLRRLLCREPDRDGDKGASREETVVPLHIGDPVVLPGIGQCYSALF (listed as Homo sapiens) [Neoantigen P37, TSTD1-F11R] |  |  |  |  | 1.160 |  | 3.13 | 
YEAGMTLGEKFRVGNCKHLKMTRP (listed as Homo sapiens) [Neoantigen P82, AR-V7] | 58.1 | 6.3 | −0.1 | 1.5 | 0.970 | 12.9 | 3.46 | 
LHPDSGNMVENGCYLRR (listed as Homo sapiens) [Neoantigen P59, FOXA1 (F254V)] |  |  |  |  | 3.010 |  | 10.75 | 
VQPIARELYQFTFDLLI (listed as Homo sapiens) [Neoantigen P48, AR.p.H875Y] | 4.4 | 99.3 | 0.1 | 4.3 | 0.220 | 12.8 | 2.33 | 
GYLRMQGLMAQRLLLR (listed as Homo sapiens) [Neoantigen P97, FOXRED2-TXN2] | 39 | 4.6 | 0.1 | 2.5 | 0.160 | 7 | 4.55 | 
GVPGDSTRRAVRRMNTF [P17] (listed as Homo sapiens) [Neoantigen P17, MSMB-NOCA4] | 3.8 |  | 0.1 | 4.9 | 0.130 | 38.7 |  | 
NSKMALNSLNSIDDAQLTRIAPPRSHCCFWEVNAP (listed as Homo sapiens) [Neoantigen P35, TMPRSS2-ERG] |  |  |  |  | 0.064 |  | 2.67 | 
LHPQRETFTPRWSGANYWKLAFPVGAEGTFPAAATQRGVVRPA (listed as Homo sapiens) [Neoantigen P27, FAM126B-ORC2] |  |  |  |  | 0.430 |  | 3.43 | 
B1 |  |  |  |  | 0.160 |  | 3.24 | Yes
